Consider two molecules from patent US20200332017A1 (SALUBRIS CHENGDU BIOTECH, published 2020).

Assay [1] deals with full length human CD40 (uniprot # P25942-1) on the membrane of 293T-CD40 cells (human, UniProt P25942 21-277). In words: cell-based or functional assay.
The target in assay [2] is T1, Human CD40-his protein (Acro biosystems, Cat # CD0-H5228) (human, UniProt P25942 21-193).
T1 construct: Bought reagent; not shown: his tag
In words: SPR, Biacore; human CD40-his. The source says:
(§1) Briefly, goat anti-mouse IgG (GE healthcare, Cat # BR100838, Mouse Antibody Capture Kit) was covalently linked to a CM5 or a Protein G chip (carboxy methyl dextran coated chip) via primary amines, using a standard amine coupling kit provided by Biacore (GE healthcare, Pittsburgh, Pa., USA). Un-reacted moieties on the biosensor surface were blocked with ethanolamine. […] Then, human CD40-his (Acro biosystems, Cat # CD0-H5228) or cynomolgus monkey CD40-his protein (Acro biosystems, Cat # CD0-052H6) in HBS EP buffer (provided by Biacore) was flowed onto the chip at a flow rate of 30 μL/min. The antigen-antibody association kinetics was followed for 2 minutes and the dissociation kinetics was followed for 10 minutes. The association and dissociation curves were fit to a 1:1 Langmuir binding model using BIA evaluation software.
A general note: Surface plasmon resonance follows binding to a sensor surface in real time, without labels.

Assay [3] concerns the target T2, cynomolgus monkey CD40-his protein (Acro biosystems, Cat # CD0-052H6) (cynomolgus monkey, UniProt G7PG38 21-193).
T2 construct: Bought reagent; also called Cynomolgus CD40-his
In words: SPR, Biacore; cynomolgus CD40-his.
Text: as §1

The target of assay [4] is T3, human CD40-Fc protein (amino acid residue 21-193 of SEQ ID NO: 67 linked to N-terminus of amino acid residue … (human, biotin-labeled in the capture ELISA and in the benchmark blocking ELISA; unlabeled when coated in the ligand blocking ELISA).
T3 construct: also called biotin-labeled human CD40-Fc; human CD40-Fc-biotin
In words: capture ELISA, biotin human CD40-Fc; mAb at 3.2 ng/mL. As for the experimental part: (§2) Plates were washed 4 times with wash buffer (PBS+0.05% Tween-20, PBST) and then blocked with 200 μl/well blocking buffer (5% w/v non-fatty milk in PBST) for 2 hours at 37° C. […] After a final wash, plates were incubated with 100 μl/well ELISA substrate TMB (Innoreagents, Cat # TMB-S-002). The reaction was stopped in 15 minutes at 25° C. with 50 μl/well 1M H₂SO₄, and the absorbance was read at 450 nm and plotted against antibody concentration. Data were analyzed using Graphpad Prism software and EC₅₀ values were reported.
In general terms: An ELISA detects its analyte on a solid surface through an enzyme-linked reagent.

For assay [5], the target named is T3, human CD40-Fc protein (amino acid …). In words: capture ELISA, biotin human CD40-Fc; mAb at 0.64 ng/mL. As for the experimental part:
as §2

Assay [6] shares this target. In words: capture ELISA, biotin human CD40-Fc; mAb at 0 ng/mL (blank). As for the experimental part: as §2
The target is the same in assay [7]. In words: competitive ELISA; coated human CD40-Fc, competitor biotin human CD40L-his. As to the method:
Briefly, human CD40-Fc proteins (amino acid residue 21-193 of SEQ ID NO: 67 linked to N-terminus of amino acid residue 99-330 of SEQ ID NO.: 24) were coated on 96-well micro plates at 2 μg/mL in coating buffer (PBS) and incubated overnight at 4° C. The next day, plates were washed with wash buffer (PBS+0.05% Tween-20, PBST), and blocked with 5% w/v non-fatty milk in PBST for 2 hours at 37° C. Plates were then washed again using wash buffer.
(§3) Serially diluted the mouse anti-CD40 antibodies of the present invention or the controls (starting at 200 nM with a four-fold serial dilution) in 2.5% w/v non-fatty milk in PBST were prepared to the plates and incubated with the human CD40-Fc proteins at room temperature for 40 minutes. […] Plates were washed again. 100 μl/well of streptavidin conjugated HRP was added and incubated for 40 minutes at 37° C. Plates were washed again using wash buffer. Finally, TMB was added and the reaction was stopped using 1M H₂SO₄, and the absorbance was read at 450 nm. Data were analyzed using Graphpad Prism software and IC₅₀ values were reported.
In the capture ELISA test, a mouse control antibody targeting a protein other than CD40 was used.

Assay [8] shares this target. In words: capture ELISA; antibody captured, biotin-labeled human CD40-Fc in solution. As to the method: as §2
For assay [9] the target is unchanged. In words: competitive ELISA; coated human CD40-Fc, competitor biotin human CD40L-his. As to the method: as §3
This is another data set of the same source.

For assay [10] the target is unchanged. In words: ligand blocking ELISA: human CD40-Fc coated, antibody titrated, then biotin-labeled human CD40L-his (blocked ligand), streptavidin-HRP, OD(450-630). As to the method: as §3

A word on the Kd: it is the concentration at which binding is half-saturated. Broadly, the IC50 is the point on the concentration scale where inhibition reaches its midpoint. A word on the EC50: it is the concentration needed to bring the measured effect to its halfway point.

Read-outs that look alike come from different tables or passages of the source.

B1: mouse anti-CD40 monoclonal antibody C1C1 (antibody, V domains shown)
VH: EVKLVESGGGLVKPGASLKLSCAASGFTFSNYGMSWVRQNSDKRLEWVASISSGGDDTYYPDNVKGRCTISRENAKNTLYLEMSSLKTEDTALYYCTRAGGKAMDYWGQGTSVTVST
VL: DIVLTQSPATLSVIPGNSVSLSCRASQSIRDNLHWYQQKSHESPRLLINYASQSISGIPSRFSGSGSGTDFTLTINSVETEDFGIYFCQQFNSWPLTFGGGTKLELK
notes: those are used here for the chimeric antibody only; also called Mouse C1C1; mouse C1C1
On to B1, for which, in [1], the “cell based functional assay (EC50, nM)” value is 2.51 nM. Further, the Kd in [2] came out at 3.62 nM; in assay [3], 2.35 nM. In addition, the “absorbance at 450 nm” value is 0.288 OD450 in [4], 0.142 OD450 in assay [5] and 0.124 OD450 in assay [6]. The IC50 in [7] and in assay [9] was 5.4 nM in each case. Moreover, the EC50 in [8] turned out to be 0.000155 µg/mL. The “IC50 (read off the curve)” value in assay [10] was about 0.8 µg/mL.

B2: chimeric antibody C1C1 (antibody, human IgG1, kappa, V domains shown)
VH: EVKLVESGGGLVKPGASLKLSCAASGFTFSNYGMSWVRQNSDKRLEWVASISSGGDDTYYPDNVKGRCTISRENAKNTLYLEMSSLKTEDTALYYCTRAGGKAMDYWGQGTSVTVST
VL: DIVLTQSPATLSVIPGNSVSLSCRASQSIRDNLHWYQQKSHESPRLLINYASQSISGIPSRFSGSGSGTDFTLTINSVETEDFGIYFCQQFNSWPLTFGGGTKLELKR
notes: also called chC1C1; chimeric C1C1
Consider B2, for which the “cell based functional assay (EC50, nM)” value in assay [1] came to 3.28 nM. Further, the equilibrium dissociation constant (Kd) in assay [2] came out at 5.98 nM; in assay [3] it was 2.34 nM. Also, the results for the “absorbance at 450 nm” value in assay [4], in [5] and in [6] were 0.082 OD450, 0.035 OD450 and 0.028 OD450, respectively. The concentration for half-maximal inhibition (IC50) in assay [7] and in assay [9] was 4.83 nM throughout. Moreover, the 50% effective concentration (EC50) in [8] came out at 0.000384 µg/mL. Besides, the “IC50 (read off the curve)” value in assay [10] is about 0.8 µg/mL.
